Measured values published in PMC9769707.

Biological target: T1, Dnr (Pseudomonas aeruginosa PAO1) (UniProt Q51441)
T1 sequence: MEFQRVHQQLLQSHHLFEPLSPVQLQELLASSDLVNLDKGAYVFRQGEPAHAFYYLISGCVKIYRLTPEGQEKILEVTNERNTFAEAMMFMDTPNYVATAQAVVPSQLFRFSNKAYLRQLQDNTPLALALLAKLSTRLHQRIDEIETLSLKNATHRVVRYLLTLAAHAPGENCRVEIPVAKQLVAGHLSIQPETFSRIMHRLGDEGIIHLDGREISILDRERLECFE
Test: EMSA

How did the binding turn out when “GGCGGCTGACTCCGATGCAATGGTGGGGGAGCAATGCATCGGGGGGATGCCCTGATCATCGCAGTCCCTTGCTGGATCACAGGCATGACAGGGAAAACGGCGCAGAACCTGTCCTTGGCGATCCCTCTGGTCCGTCACTGGCGACGAACTACAAAAGACGCTAGAACAGGTCTATGGATTTGCAAAATAAAATTTTCGTTGGACTCCC (double strand) [hcp3 promoter fragment]” was run?
The binding was “no binding”.
